In the supplement of paper PMC10567573:

B1: SNX3 (parent)
chain: FLRQLPFRGDDGIFDDNFIEERKQ
B2: YPEL3 (parent)
chain: SKPKTFQAYLDDCHRRYSCAHCRA

Variants of: B1
Assay: protein stability index of a GFP-peptide fusion (GPS, HEK-293T) (PSI 1-6); higher = more stable
Conditions: c terminus: a fixed tail appended
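Note: lentivirally expressed fusions sorted by FACS into six bins by GFP to DsRed ratio, PSI derived from sequencing read proportions per bin multiplied by bin number.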

**Q.** With FLRQLPFRGDDGIFDDNFIEERIQ as the variant, how does the protein stability index read?
**A.** Its protein stability index is 2.47.

**Q.** Which protein stability index does the source give for FLRQLPFRGDDGIFDDNFIEERDQ here?
**A.** Its protein stability index is 4.48.

**Q.** For FLRQLPFRGDDGIFDDNFIEERRQ, which protein stability index is on record?
**A.** Its protein stability index is 2.95.

**Q.** With FLRQLPFRGDDGIFDDNFIEERVQ as the variant, how does the protein stability index read?
**A.** Its protein stability index is 2.49.

**Q.** Which protein stability index does the source give for FLRQLPFRGDDGIFDDNFIEERLQ here?
**A.** Its protein stability index is 2.49.

**Q.** With FLRQLPFRGDDGIFDDNFIEERAQ as the variant, how does the protein stability index read?
**A.** The protein stability index was 3.45.

**Q.** Which protein stability index does the source give for FLRQLPFRGDDGIFDDNFIEERCQ here?
**A.** The protein stability index was 3.36.

**Q.** For FLRQLPFRGDDGIFDDNFIEERYQ, which protein stability index is on record?
**A.** Its protein stability index is 2.99.

**Q.** Which protein stability index does the source give for FLRQLPFRGDDGIFDDNFIEERSQ here?
**A.** Its protein stability index is 3.16.

**Q.** With FLRQLPFRGDDGIFDDNFIEERNQ as the variant, how does the protein stability index read?
**A.** The protein stability index was 3.92.

**Q.** For FLRQLPFRGDDGIFDDNFIEERQQ, which protein stability index is on record?
**A.** The protein stability index was 3.21.

**Q.** Which protein stability index does the source give for FLRQLPFRGDDGIFDDNFIEERFQ here?
**A.** Its protein stability index is 2.9.

**Q.** Which protein stability index does the source give for FLRQLPFRGDDGIFDDNFIEERMQ here?
**A.** The protein stability index was 3.26.

**Q.** With FLRQLPFRGDDGIFDDNFIEERTQ as the variant, how does the protein stability index read?
**A.** The protein stability index was 3.52.

**Q.** With FLRQLPFRGDDGIFDDNFIEERHQ as the variant, how does the protein stability index read?
**A.** Its protein stability index is 3.38.

**Q.** For FLRQLPFRGDDGIFDDNFIEERWQ, which protein stability index is on record?
**A.** Its protein stability index is 2.75.

**Q.** For FLRQLPFRGDDGIFDDNFIEERPQ, which protein stability index is on record?
**A.** The protein stability index was 3.36.

**Q.** With FLRQLPFRGDDGIFDDNFICERKQ as the variant, how does the protein stability index read?
**A.** Its protein stability index is 3.23.

**Q.** For FLRQLPFRGDDGIFDDNFIGERKQ, which protein stability index is on record?
**A.** The protein stability index was 3.17.

**Q.** Which protein stability index does the source give for FLRQLPFRGDDGIFDDNFIWERKQ here?
**A.** Its protein stability index is 2.17.

**Q.** Which protein stability index does the source give for FLRQLPFRGDDGIFDDNFIRERKQ here?
**A.** The protein stability index was 3.24.

**Q.** With FLRQLPFRGDDGIFDDNFITERKQ as the variant, how does the protein stability index read?
**A.** Its protein stability index is 2.24.

**Q.** For FLRQLPFRGDDGIFDDNFIFERKQ, which protein stability index is on record?
**A.** The protein stability index was 2.88.

**Q.** With FLRQLPFRGDDGIFDDNFIHERKQ as the variant, how does the protein stability index read?
**A.** Its protein stability index is 2.29.

**Q.** For FLRQLPFRGDDGIFDDNFIVERKQ, which protein stability index is on record?
**A.** The protein stability index was 2.49.

**Q.** With FLRQLPFRGDDGIFDDNFINERKQ as the variant, how does the protein stability index read?
**A.** The protein stability index was 2.92.

**Q.** With FLRQLPFRGDDGIFDDNFILERKQ as the variant, how does the protein stability index read?
**A.** The protein stability index was 2.56.

**Q.** For FLRQLPFRGDDGIFDDNFIYERKQ, which protein stability index is on record?
**A.** Its protein stability index is 2.84.

**Q.** Which protein stability index does the source give for FLRQLPFRGDDGIFDDNFISERKQ here?
**A.** The protein stability index was 2.93.

**Q.** With FLRQLPFRGDDGIFDDNFIQERKQ as the variant, how does the protein stability index read?
**A.** The protein stability index was 2.74.

**Q.** With FLRQLPFRGDDGIFDDNFIIERKQ as the variant, how does the protein stability index read?
**A.** The protein stability index was 1.67.

**Q.** With FLRQLPFRGDDGIFDDNFIMERKQ as the variant, how does the protein stability index read?
**A.** Its protein stability index is 2.79.

**Q.** Which protein stability index does the source give for FLRQLPFRGDDGIFDDNFIDERKQ here?
**A.** Its protein stability index is 3.35.

**Q.** Which protein stability index does the source give for FLRQLPFRGDDGIFDDNFIKERKQ here?
**A.** Its protein stability index is 3.74.

**Q.** Which protein stability index does the source give for FLRQLPFRGDDGIFDDNFIPERKQ here?
**A.** Its protein stability index is 2.44.

**Q.** Which protein stability index does the source give for FLRQLPFRGDDGIFDDNFIEEHKQ here?
**A.** Its protein stability index is 3.19.

**Q.** Which protein stability index does the source give for FLRQLPFRGDDGIFDDNFIEEKKQ here?
**A.** Its protein stability index is 3.81.

**Q.** With FLRQLPFRGDDGIFDDNFIEEPKQ as the variant, how does the protein stability index read?
**A.** Its protein stability index is 3.

**Q.** With FLRQLPFRGDDGIFDDNFIEEQKQ as the variant, how does the protein stability index read?
**A.** The protein stability index was 3.27.

**Q.** Which protein stability index does the source give for FLRQLPFRGDDGIFDDNFIEECKQ here?
**A.** The protein stability index was 2.85.

**Q.** For FLRQLPFRGDDGIFDDNFIEEVKQ, which protein stability index is on record?
**A.** The protein stability index was 3.12.

**Q.** Which protein stability index does the source give for FLRQLPFRGDDGIFDDNFIEENKQ here?
**A.** The protein stability index was 3.78.

**Q.** With FLRQLPFRGDDGIFDDNFIEEWKQ as the variant, how does the protein stability index read?
**A.** Its protein stability index is 4.24.

**Q.** Which protein stability index does the source give for FLRQLPFRGDDGIFDDNFIEEAKQ here?
**A.** Its protein stability index is 3.56.

**Q.** With FLRQLPFRGDDGIFDDNFIEEDKQ as the variant, how does the protein stability index read?
**A.** The protein stability index was 3.44.

**Q.** For FLRQLPFRGDDGIFDDNFIEEIKQ, which protein stability index is on record?
**A.** The protein stability index was 2.78.

**Q.** Which protein stability index does the source give for FLRQLPFRGDDGIFDDNFIEEFKQ here?
**A.** Its protein stability index is 3.44.

**Q.** Which protein stability index does the source give for FLRQLPFRGDDGIFDDNFIEEYKQ here?
**A.** Its protein stability index is 2.31.

**Q.** Which protein stability index does the source give for FLRQLPFRGDDGIFDDNFIEEMKQ here?
**A.** The protein stability index was 3.45.

**Q.** Which protein stability index does the source give for FLRQLPFRGDDGIFDDNFIEELKQ here?
**A.** The protein stability index was 2.87.

**Q.** Which protein stability index does the source give for FLRQLPFRGDDGIFDDNFIEEEKQ here?
**A.** Its protein stability index is 3.73.

**Q.** With FLRQLPFRGDDGIFDDNFIEETKQ as the variant, how does the protein stability index read?
**A.** The protein stability index was 3.77.

**Q.** Which protein stability index does the source give for FLRQLPFRGDDGIFDDNFIEEGKQ here?
**A.** The protein stability index was 3.66.

**Q.** With FLRQLPFRGDDGIFDDNFIEESKQ as the variant, how does the protein stability index read?
**A.** The protein stability index was 2.81.

**Q.** Which protein stability index does the source give for FLRQLPFRGDDGIFDDNFIEERKG here?
**A.** The protein stability index was 3.29.

**Q.** With FLRQLPFRGDDGIFDDNFIEERKK as the variant, how does the protein stability index read?
**A.** Its protein stability index is 4.36.

**Q.** For FLRQLPFRGDDGIFDDNFIEERKM, which protein stability index is on record?
**A.** The protein stability index was 2.56.

**Q.** With FLRQLPFRGDDGIFDDNFIEERKW as the variant, how does the protein stability index read?
**A.** The protein stability index was 2.1.

**Q.** For FLRQLPFRGDDGIFDDNFIEERKI, which protein stability index is on record?
**A.** Its protein stability index is 3.02.

**Q.** Which protein stability index does the source give for FLRQLPFRGDDGIFDDNFIEERKP here?
**A.** The protein stability index was 2.6.

**Q.** Which protein stability index does the source give for FLRQLPFRGDDGIFDDNFIEERKA here?
**A.** The protein stability index was 3.3.

**Q.** For FLRQLPFRGDDGIFDDNFIEERKT, which protein stability index is on record?
**A.** Its protein stability index is 2.84.

**Q.** With FLRQLPFRGDDGIFDDNFIEERKV as the variant, how does the protein stability index read?
**A.** Its protein stability index is 2.61.

**Q.** Which protein stability index does the source give for FLRQLPFRGDDGIFDDNFIEERKN here?
**A.** Its protein stability index is 4.03.

**Q.** With FLRQLPFRGDDGIFDDNFIEERKD as the variant, how does the protein stability index read?
**A.** Its protein stability index is 3.62.

**Q.** For FLRQLPFRGDDGIFDDNFIEERKR, which protein stability index is on record?
**A.** Its protein stability index is 3.48.

**Q.** Which protein stability index does the source give for FLRQLPFRGDDGIFDDNFIEERKS here?
**A.** The protein stability index was 2.75.

**Q.** For FLRQLPFRGDDGIFDDNFIEERKY, which protein stability index is on record?
**A.** Its protein stability index is 2.93.

**Q.** For FLRQLPFRGDDGIFDDNFIEERKC, which protein stability index is on record?
**A.** Its protein stability index is 2.57.

**Q.** With FLRQLPFRGDDGIFDDNFIEERKL as the variant, how does the protein stability index read?
**A.** Its protein stability index is 2.79.

**Q.** With FLRQLPFRGDDGIFDDNFIEERKE as the variant, how does the protein stability index read?
**A.** The protein stability index was 3.44.

**Q.** Which protein stability index does the source give for FLRQLPFRGDDGIFDDNFIEERKH here?
**A.** The protein stability index was 2.91.

**Q.** Which protein stability index does the source give for FLRQLPFRGDDGIFDDNFIEERKF here?
**A.** The protein stability index was 2.96.

**Q.** Which protein stability index does the source give for FLRQLPFRGDDGIFDDNFIEFRKQ here?
**A.** Its protein stability index is 2.39.

**Q.** With FLRQLPFRGDDGIFDDNFIECRKQ as the variant, how does the protein stability index read?
**A.** Its protein stability index is 2.85.

**Q.** For FLRQLPFRGDDGIFDDNFIEQRKQ, which protein stability index is on record?
**A.** The protein stability index was 2.84.

**Q.** Which protein stability index does the source give for FLRQLPFRGDDGIFDDNFIEARKQ here?
**A.** The protein stability index was 3.12.

**Q.** With FLRQLPFRGDDGIFDDNFIEYRKQ as the variant, how does the protein stability index read?
**A.** Its protein stability index is 2.

**Q.** With FLRQLPFRGDDGIFDDNFIEPRKQ as the variant, how does the protein stability index read?
**A.** The protein stability index was 2.62.

**Q.** For FLRQLPFRGDDGIFDDNFIESRKQ, which protein stability index is on record?
**A.** Its protein stability index is 2.83.

**Q.** Which protein stability index does the source give for FLRQLPFRGDDGIFDDNFIETRKQ here?
**A.** Its protein stability index is 3.13.

**Q.** Which protein stability index does the source give for FLRQLPFRGDDGIFDDNFIERRKQ here?
**A.** Its protein stability index is 3.19.

**Q.** With FLRQLPFRGDDGIFDDNFIEGRKQ as the variant, how does the protein stability index read?
**A.** The protein stability index was 2.49.

**Q.** With FLRQLPFRGDDGIFDDNFIEIRKQ as the variant, how does the protein stability index read?
**A.** Its protein stability index is 2.96.

**Q.** For FLRQLPFRGDDGIFDDNFIEWRKQ, which protein stability index is on record?
**A.** The protein stability index was 2.1.

**Q.** Which protein stability index does the source give for FLRQLPFRGDDGIFDDNFIELRKQ here?
**A.** The protein stability index was 3.34.

**Q.** For FLRQLPFRGDDGIFDDNFIEHRKQ, which protein stability index is on record?
**A.** The protein stability index was 2.64.

**Q.** With FLRQLPFRGDDGIFDDNFIEKRKQ as the variant, how does the protein stability index read?
**A.** The protein stability index was 3.33.

**Q.** For FLRQLPFRGDDGIFDDNFIEMRKQ, which protein stability index is on record?
**A.** The protein stability index was 2.81.

**Q.** With FLRQLPFRGDDGIFDDNFIEDRKQ as the variant, how does the protein stability index read?
**A.** The protein stability index was 4.12.

**Q.** With FLRQLPFRGDDGIFDDNFIENRKQ as the variant, how does the protein stability index read?
**A.** Its protein stability index is 3.01.

**Q.** Which protein stability index does the source give for FLRQLPFRGDDGIFDDNFIEVRKQ here?
**A.** The protein stability index was 2.02.

Variants of: B2
Assay: as above
Conditions: c terminus: a fixed tail appended

**Q.** With SKKKTFQAYLDDCHRRYSCAHCRA as the variant, how does the protein stability index read?
**A.** Its protein stability index is 2.29.

**Q.** Which protein stability index does the source give for SKHKTFQAYLDDCHRRYSCAHCRA here?
**A.** Its protein stability index is 1.54.
